Measurements published in doi:10.1101/2021.06.07.447473.

Biological target: eIF2B(αβδγε)2 decamer, eIF2Bβ Avi-tagged and biotinylated (human) (UniProt Q14232)
Test: SPR

Sandfly Fever Sicilian virus (SFSV) NSs protein with C-terminal 6xHIS tag (NSs::6xHIS) (natural protein)
Kd: 43 nM
